Drawing on the supplement of paper PMC10567573, this text covers protein stability index for 94 variants.

The labels stand for the following.
B1: CSNK1G1 (parent)
chain: GSLPWQGLKADTLKERYQKIGDTK
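Note: lentivirally expressed fusions sorted by FACS into six bins by GFP to DsRed ratio, PSI derived from sequencing read proportions per bin multiplied by bin number.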

The data set covers variants of B1. As to the kind of experiment: protein stability index of a GFP-peptide fusion (GPS, HEK-293T) (PSI 1-6); higher = more stable. The conditions noted are these: c terminus: a fixed tail appended.
Regarding GSLPWQGLKADTLKEREQKIGDTK, the protein stability index is 5.71.
On to GSLPWQGLKADTLKERKQKIGDTK, for which the protein stability index turned out to be 4.72.
On to GSLPWQGLKADTLKERHQKIGDTK, for which the protein stability index turned out to be 5.05.
The value for GSLPWQGLKADTLKERTQKIGDTK was 4.83.
Consider GSLPWQGLKADTLKERPQKIGDTK, for which the protein stability index is 4.88.
GSLPWQGLKADTLKERFQKIGDTK: the protein stability index worked out at 4.19.
Turning to GSLPWQGLKADTLKERCQKIGDTK, the protein stability index was 4.27.
In the case of GSLPWQGLKADTLKEYYQKIGDTK it was 4.01.
The value for GSLPWQGLKADTLKEVYQKIGDTK was 4.25; that for GSLPWQGLKADTLKEMYQKIGDTK was 4.11.
In the case of GSLPWQGLKADTLKEAYQKIGDTK it was 4.29; in that of GNLPWQGLKADTLKERYQKIGDTK, 4.11; in that of GELPWQGLKADTLKERYQKIGDTK, 4.6.
In the case of GFLPWQGLKADTLKERYQKIGDTK, the protein stability index turned out to be 3.73.
In the case of GVLPWQGLKADTLKERYQKIGDTK, the protein stability index was 3.35.
In the case of GSTPWQGLKADTLKERYQKIGDTK it was 4.09; in that of GSEPWQGLKADTLKERYQKIGDTK, 4.18.
Turning to GSRPWQGLKADTLKERYQKIGDTK, the protein stability index came out at 3.81.
In the case of GSDPWQGLKADTLKERYQKIGDTK it was 4.2.
In the case of GSHPWQGLKADTLKERYQKIGDTK it was 4.58; in that of GSLPWQGLKADTLHERYQKIGDTK, 4.37; in that of GSLPWQGLKADTLIERYQKIGDTK, 3.75.
The value for GSLPWQGLKADTLKERYQKIGLTK was 3.32; that for GSLPWQGLKADTLKERYQKIGRTK was 3.43; that for GSLPWQGLKADTLKERYQKICDTK was 3.29.
GSLPWQGLKADTLKERYQKIEDTK: the protein stability index was determined as 4.37.
The value for GSLPWQGLKADTLKERYQKIKDTK was 4.71; that for GSLPWQGLKADTLKERYQSIGDTK was 3.95; that for GSLPWQGLKADTLKERYQIIGDTK was 3.54.
GSLPWQGLKADTLKERYQYIGDTK: the protein stability index amounted to 3.86.
In the case of GSLPWQGLKADTLKERYQFIGDTK it was 3.05; in that of GSLPWQGLKADTLKERYQAIGDTK, 3.94.
In the case of GSLPWQGLGADTLKERYQKIGDTK it was 3.9; in that of GSLPWQGLFADTLKERYQKIGDTK, 3.66; in that of GSLPWQGLSADTLKERYQKIGDTK, 4.2.
For the variant GSLCWQGLKADTLKERYQKIGDTK, the protein stability index was found to be 3.42.
The value for GSLAWQGLKADTLKERYQKIGDTK was 4.02; that for GSLLWQGLKADTLKERYQKIGDTK was 3.78; that for GSLPWQGLKADHLKERYQKIGDTK was 3.71.
In the case of GSLPWQGLKADSLKERYQKIGDTK it was 4.58; in that of GSLPWQGLKADDLKERYQKIGDTK, 4.68; in that of GSLPWQGLKADILKERYQKIGDTK, 3.42.
With GSLPWQGLKANTLKERYQKIGDTK, the protein stability index was 3.37.
With GSLPWQGLKATTLKERYQKIGDTK, the protein stability index is 3.61.
Regarding GSLPWQGLKAPTLKERYQKIGDTK, the protein stability index was 4.11.
In the case of GSLPWQGLKADTLKERYQKIGDNK it was 3.92; in that of GSLPWQGLKADTLKERYQKIGDMK, 3.97; in that of GSLPWQGSKADTLKERYQKIGDTK, 4.64.
The value for GSLPWQGDKADTLKERYQKIGDTK was 4.75; that for GSLPWQGYKADTLKERYQKIGDTK was 3.63.
In the case of GSLPWQGGKADTLKERYQKIGDTK it was 4.76.
With FSLPWQGLKADTLKERYQKIGDTK, the protein stability index is 2.73.
On to NSLPWQGLKADTLKERYQKIGDTK, for which the protein stability index came to 4.13.
RSLPWQGLKADTLKERYQKIGDTK: the protein stability index is 4.16.
The value for CSLPWQGLKADTLKERYQKIGDTK was 3.34; that for YSLPWQGLKADTLKERYQKIGDTK was 2.08; that for GSLPWQCLKADTLKERYQKIGDTK was 3.4.
In the case of GSLPWQSLKADTLKERYQKIGDTK it was 4.01; in that of GSLPWQHLKADTLKERYQKIGDTK, 3.72.
In the case of GSLPWQELKADTLKERYQKIGDTK it was 4.31; in that of GSLPWQGLKKDTLKERYQKIGDTK, 4.28.
As for GSLPWQGLKHDTLKERYQKIGDTK, the protein stability index is 4.11.
For GSLPWQGLKPDTLKERYQKIGDTK, the protein stability index came out at 4.39.
Take GSLPWQGLKADTLKCRYQKIGDTK: the protein stability index is 3.37.
The value for GSLPWQGLKADTLKKRYQKIGDTK was 3.29.
With GSLPWQGLKADTLKQRYQKIGDTK, the protein stability index worked out at 4.09.
In the case of GSLPWQGLKADTLKWRYQKIGDTK it was 2.77.
The value for GSLPWQGLKADTLKTRYQKIGDTK was 3.93.
For GSLPWQGLKADTNKERYQKIGDTK, the protein stability index was 4.81.
Consider GSLPWQGLKADTVKERYQKIGDTK, for which the protein stability index turned out to be 3.7.
In the case of GSLPWQGLKADTEKERYQKIGDTK it was 4.66; in that of GSLPWQGLKADTLKERYQKIGDTD, 3.25; in that of GSLPWQGLKADTLKERYQKIGDTE, 4.88.
Regarding GSLPWQGLKADTLKERYQKIGDTN, the protein stability index was 3.91.
The value for GSLPWQGLKADTLKERYQKIGDTF was 3; that for GSLPWRGLKADTLKERYQKIGDTK was 3.96.
In the case of GSLPWCGLKADTLKERYQKIGDTK it was 3.4; in that of GSLPWYGLKADTLKERYQKIGDTK, 2.89; in that of GSLPWKGLKADTLKERYQKIGDTK, 4.13.
In the case of GSLPWHGLKADTLKERYQKIGDTK, the protein stability index was found to be 4.62.
In the case of GSLPWTGLKADTLKERYQKIGDTK it was 4.24.
Take GSLPIQGLKADTLKERYQKIGDTK: the protein stability index is 3.99.
In the case of GSLPYQGLKADTLKERYQKIGDTK, the protein stability index came out at 4.43.
Regarding GSLPFQGLKADTLKERYQKIGDTK, the protein stability index was found to be 4.75.
The value for GSLPWQGLKADTLKERYQKAGDTK was 4.67.
With GSLPWQGLKADTLKERYQKGGDTK, the protein stability index is 5.
Regarding GSLPWQGLKADTLKERYQKMGDTK, the protein stability index amounted to 4.53.
GSLPWQGLKADTLKERYQKKGDTK: the protein stability index stood at 4.33.
In the case of GSLPWQGLKADTLKERYGKIGDTK it was 4.09.
In the case of GSLPWQGLKADTLKERYLKIGDTK it was 3.91; in that of GSLPWQGLKADTLKERYEKIGDTK, 4.54.
With GSLPWQGLKADTLKERYCKIGDTK, the protein stability index is 3.76.
The value for GSLPWQGLKADTLKERYKKIGDTK was 3.62; that for GSLPWQGLKADTLKERYSKIGDTK was 4.35.
